Test results: PMC8897147 (Acta Pharmaceutica Sinica. B, 2021)
Values belong to the binder of their own block, whether it stands above or below them.

Experiments:
Assay in all cases: FRET or BRET
[1] = target: T1, gastric inhibitory polypeptide receptor-Rluc8 (UniProt P48546 22-466)
T1 sequence: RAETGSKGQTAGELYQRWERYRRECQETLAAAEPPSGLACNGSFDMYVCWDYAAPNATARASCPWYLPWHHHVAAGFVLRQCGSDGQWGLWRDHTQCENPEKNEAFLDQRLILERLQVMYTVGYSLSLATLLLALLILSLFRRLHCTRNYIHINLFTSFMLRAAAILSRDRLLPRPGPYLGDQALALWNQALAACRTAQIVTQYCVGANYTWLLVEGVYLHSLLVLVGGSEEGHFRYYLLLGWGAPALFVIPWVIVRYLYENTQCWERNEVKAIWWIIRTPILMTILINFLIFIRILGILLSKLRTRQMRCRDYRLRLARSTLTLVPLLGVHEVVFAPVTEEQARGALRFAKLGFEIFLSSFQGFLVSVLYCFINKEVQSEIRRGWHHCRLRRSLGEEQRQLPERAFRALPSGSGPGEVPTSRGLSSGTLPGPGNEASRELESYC

[2] = target: glucagon-like peptide-1 receptor-Rluc8 (UniProt P43220 24-463)
[3] = target: T2, glucagon-like peptide-2 receptor-Rluc8 (UniProt O95838 1-553)
T2 sequence: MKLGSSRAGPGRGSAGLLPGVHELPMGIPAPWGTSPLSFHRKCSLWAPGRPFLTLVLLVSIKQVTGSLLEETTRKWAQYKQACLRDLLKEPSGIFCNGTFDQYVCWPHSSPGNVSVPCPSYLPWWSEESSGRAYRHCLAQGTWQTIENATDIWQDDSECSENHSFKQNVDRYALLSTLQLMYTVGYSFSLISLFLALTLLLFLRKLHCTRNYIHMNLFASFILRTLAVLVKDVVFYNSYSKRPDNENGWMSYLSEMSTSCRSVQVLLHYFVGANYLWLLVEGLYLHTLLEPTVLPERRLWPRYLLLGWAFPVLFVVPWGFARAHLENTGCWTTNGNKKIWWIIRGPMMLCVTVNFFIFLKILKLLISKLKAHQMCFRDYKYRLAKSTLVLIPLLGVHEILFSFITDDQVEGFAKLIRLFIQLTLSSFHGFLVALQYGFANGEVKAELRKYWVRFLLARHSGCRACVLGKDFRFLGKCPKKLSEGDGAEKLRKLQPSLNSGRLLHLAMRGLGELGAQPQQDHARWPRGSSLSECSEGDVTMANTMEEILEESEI

[4] = target: T3, growth hormone-releasing hormone receptor-Rluc8 (UniProt Q02643 23-423)
T3 sequence: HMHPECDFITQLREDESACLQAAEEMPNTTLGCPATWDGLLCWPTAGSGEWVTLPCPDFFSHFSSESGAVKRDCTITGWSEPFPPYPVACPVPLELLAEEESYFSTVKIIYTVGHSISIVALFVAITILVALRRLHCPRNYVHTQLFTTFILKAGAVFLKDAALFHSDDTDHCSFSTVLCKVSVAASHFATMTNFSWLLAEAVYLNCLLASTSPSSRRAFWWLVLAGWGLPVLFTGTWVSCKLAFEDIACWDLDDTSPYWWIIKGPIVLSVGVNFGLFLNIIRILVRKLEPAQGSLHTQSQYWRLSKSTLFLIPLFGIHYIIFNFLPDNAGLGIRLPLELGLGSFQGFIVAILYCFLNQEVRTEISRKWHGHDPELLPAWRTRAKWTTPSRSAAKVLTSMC

[5] = target: glucagon receptor-Rluc8 (UniProt P47871 26-477)
Sequence of glucagon receptor-Rluc8 (P47871 26-477): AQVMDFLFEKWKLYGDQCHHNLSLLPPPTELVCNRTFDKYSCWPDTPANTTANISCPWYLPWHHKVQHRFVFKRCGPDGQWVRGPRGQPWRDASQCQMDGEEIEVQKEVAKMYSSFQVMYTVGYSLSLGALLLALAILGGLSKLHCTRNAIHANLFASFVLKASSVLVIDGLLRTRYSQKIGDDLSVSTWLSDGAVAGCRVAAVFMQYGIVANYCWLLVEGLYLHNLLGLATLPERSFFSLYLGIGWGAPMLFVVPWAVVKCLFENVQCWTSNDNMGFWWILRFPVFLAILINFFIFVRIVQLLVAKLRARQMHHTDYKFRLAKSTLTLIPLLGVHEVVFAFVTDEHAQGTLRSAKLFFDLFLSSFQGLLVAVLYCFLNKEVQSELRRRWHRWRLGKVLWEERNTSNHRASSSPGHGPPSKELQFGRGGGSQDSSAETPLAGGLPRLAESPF

[6] = target: secretin receptor-Rluc8 (UniProt P47872 23-440)
Sequence of secretin receptor-Rluc8 (P47872 23-440): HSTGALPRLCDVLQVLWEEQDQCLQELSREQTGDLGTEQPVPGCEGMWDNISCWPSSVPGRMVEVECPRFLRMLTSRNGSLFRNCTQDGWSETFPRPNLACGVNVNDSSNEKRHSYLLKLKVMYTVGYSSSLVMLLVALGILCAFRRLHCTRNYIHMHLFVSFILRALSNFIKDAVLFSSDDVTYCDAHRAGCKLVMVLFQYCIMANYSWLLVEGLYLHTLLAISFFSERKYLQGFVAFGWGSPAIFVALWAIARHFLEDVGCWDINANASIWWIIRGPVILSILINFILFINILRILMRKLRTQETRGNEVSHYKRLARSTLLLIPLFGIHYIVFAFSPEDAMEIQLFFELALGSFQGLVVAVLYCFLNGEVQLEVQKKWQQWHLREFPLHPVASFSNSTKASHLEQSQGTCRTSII

[7] = target: calcitonin-like receptor-Rluc8 (human, UniProt Q16602 23-461)
Sequence of calcitonin-like receptor-Rluc8 (Q16602 23-461): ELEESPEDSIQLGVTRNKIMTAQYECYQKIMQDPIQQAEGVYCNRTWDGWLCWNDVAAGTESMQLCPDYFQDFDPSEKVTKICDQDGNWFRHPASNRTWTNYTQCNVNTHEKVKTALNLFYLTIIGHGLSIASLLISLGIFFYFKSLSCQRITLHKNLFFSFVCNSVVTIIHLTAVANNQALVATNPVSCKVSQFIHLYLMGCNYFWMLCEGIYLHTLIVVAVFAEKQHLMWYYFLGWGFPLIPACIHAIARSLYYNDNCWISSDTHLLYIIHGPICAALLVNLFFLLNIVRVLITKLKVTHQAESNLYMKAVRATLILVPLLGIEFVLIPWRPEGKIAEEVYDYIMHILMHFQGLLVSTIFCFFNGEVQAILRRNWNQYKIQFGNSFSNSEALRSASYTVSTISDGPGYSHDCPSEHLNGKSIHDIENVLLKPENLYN

BRET50 (Kd) [1]: 0.352 intensity ratio of RAMP:receptor
BRET50 (Kd) [2]: 1 intensity ratio of RAMP:receptor
BRET50 (Kd) [3]: 1.66 intensity ratio of RAMP:receptor
BRET50 (Kd) [4]: 2.09 intensity ratio of RAMP:receptor
BRET50 (Kd) [5]: 2.34 intensity ratio of RAMP:receptor
BRET50 (Kd) [6]: 1.63 intensity ratio of RAMP:receptor
BRET50 (Kd) [7]: 0.087 intensity ratio of RAMP:receptor
B1: RAMP3-Ypet (receptor activity-modulating protein 3) (natural protein)
chain: RAGGCNETGMLERLPLCGKAFADMMGKVDVWKWCNLSEFIVYYESFTNCTEMEANVVGCYWPNPLAQGFITGIHRQFFSNCTVDRVHLEDPPDEVLIPLIVIPVVLTVAMAGLVVWRSKRTDTLL

BRET50 (Kd) [1]: 2.75 intensity ratio of RAMP:receptor
BRET50 (Kd) [3]: 7.45 intensity ratio of RAMP:receptor
BRET50 (Kd) [4]: 0.893 intensity ratio of RAMP:receptor
BRET50 (Kd) [5]: 1.65 intensity ratio of RAMP:receptor
BRET50 (Kd) [7]: 0.114 intensity ratio of RAMP:receptor
B2: RAMP2-Ypet (receptor activity-modulating protein 2) (natural protein)
chain: QPLPTTGTPGSEGGTVKNYETAVQFCWNHYKDQMDPIEKDWCDWAMISRPYSTLRDCLEHFAELFDLGFPNPLAERIIFETHQIHFANCSLVQPTFSDPPEDVLLAMIIAPICLIPFLITLVVWRSKDSEAQA

BRET50 (Kd) [1]: 4.6 intensity ratio of RAMP:receptor
BRET50 (Kd) [5]: 1.55 intensity ratio of RAMP:receptor
BRET50 (Kd) [7]: 0.077 intensity ratio of RAMP:receptor
B3: RAMP1-Ypet (receptor activity-modulating protein 1) (natural protein)
chain: CQEANYGALLRELCLTQFQVDMEAVGETLWCDWGRTIRSYRELADCTWHMAEKLGCFWPNAEVDRFFLAVHGRYFRSCPISGRAVRDPPGSILYPFIVVPITVTLLVTALVVWQSKRTEGIV
